Assay results reported in paper doi:10.1101/2023.06.24.546380.

Columns and labels:
[1] = target: Zonula occludens scaffold protein ZO1 (UniProt Q07157); test: partitioning of actin into ZO1 surface condensates on supported lipid bilayers
[2] = target: intracellular domain of the tight junction receptor JAM-A (UniProt Q9Y624)
Chain of UniProt Q9Y624 (Q9Y624 28-299): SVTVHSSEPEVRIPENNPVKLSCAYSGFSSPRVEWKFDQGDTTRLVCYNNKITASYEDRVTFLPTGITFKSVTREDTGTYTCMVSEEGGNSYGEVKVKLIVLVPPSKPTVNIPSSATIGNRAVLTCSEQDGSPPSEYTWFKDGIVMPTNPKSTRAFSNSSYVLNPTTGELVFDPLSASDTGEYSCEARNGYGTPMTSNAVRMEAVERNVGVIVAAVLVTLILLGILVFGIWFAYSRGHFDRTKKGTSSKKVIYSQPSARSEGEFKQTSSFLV

Chain of UniProt Q07157 (Q07157 whole entry, the tested form may be a part): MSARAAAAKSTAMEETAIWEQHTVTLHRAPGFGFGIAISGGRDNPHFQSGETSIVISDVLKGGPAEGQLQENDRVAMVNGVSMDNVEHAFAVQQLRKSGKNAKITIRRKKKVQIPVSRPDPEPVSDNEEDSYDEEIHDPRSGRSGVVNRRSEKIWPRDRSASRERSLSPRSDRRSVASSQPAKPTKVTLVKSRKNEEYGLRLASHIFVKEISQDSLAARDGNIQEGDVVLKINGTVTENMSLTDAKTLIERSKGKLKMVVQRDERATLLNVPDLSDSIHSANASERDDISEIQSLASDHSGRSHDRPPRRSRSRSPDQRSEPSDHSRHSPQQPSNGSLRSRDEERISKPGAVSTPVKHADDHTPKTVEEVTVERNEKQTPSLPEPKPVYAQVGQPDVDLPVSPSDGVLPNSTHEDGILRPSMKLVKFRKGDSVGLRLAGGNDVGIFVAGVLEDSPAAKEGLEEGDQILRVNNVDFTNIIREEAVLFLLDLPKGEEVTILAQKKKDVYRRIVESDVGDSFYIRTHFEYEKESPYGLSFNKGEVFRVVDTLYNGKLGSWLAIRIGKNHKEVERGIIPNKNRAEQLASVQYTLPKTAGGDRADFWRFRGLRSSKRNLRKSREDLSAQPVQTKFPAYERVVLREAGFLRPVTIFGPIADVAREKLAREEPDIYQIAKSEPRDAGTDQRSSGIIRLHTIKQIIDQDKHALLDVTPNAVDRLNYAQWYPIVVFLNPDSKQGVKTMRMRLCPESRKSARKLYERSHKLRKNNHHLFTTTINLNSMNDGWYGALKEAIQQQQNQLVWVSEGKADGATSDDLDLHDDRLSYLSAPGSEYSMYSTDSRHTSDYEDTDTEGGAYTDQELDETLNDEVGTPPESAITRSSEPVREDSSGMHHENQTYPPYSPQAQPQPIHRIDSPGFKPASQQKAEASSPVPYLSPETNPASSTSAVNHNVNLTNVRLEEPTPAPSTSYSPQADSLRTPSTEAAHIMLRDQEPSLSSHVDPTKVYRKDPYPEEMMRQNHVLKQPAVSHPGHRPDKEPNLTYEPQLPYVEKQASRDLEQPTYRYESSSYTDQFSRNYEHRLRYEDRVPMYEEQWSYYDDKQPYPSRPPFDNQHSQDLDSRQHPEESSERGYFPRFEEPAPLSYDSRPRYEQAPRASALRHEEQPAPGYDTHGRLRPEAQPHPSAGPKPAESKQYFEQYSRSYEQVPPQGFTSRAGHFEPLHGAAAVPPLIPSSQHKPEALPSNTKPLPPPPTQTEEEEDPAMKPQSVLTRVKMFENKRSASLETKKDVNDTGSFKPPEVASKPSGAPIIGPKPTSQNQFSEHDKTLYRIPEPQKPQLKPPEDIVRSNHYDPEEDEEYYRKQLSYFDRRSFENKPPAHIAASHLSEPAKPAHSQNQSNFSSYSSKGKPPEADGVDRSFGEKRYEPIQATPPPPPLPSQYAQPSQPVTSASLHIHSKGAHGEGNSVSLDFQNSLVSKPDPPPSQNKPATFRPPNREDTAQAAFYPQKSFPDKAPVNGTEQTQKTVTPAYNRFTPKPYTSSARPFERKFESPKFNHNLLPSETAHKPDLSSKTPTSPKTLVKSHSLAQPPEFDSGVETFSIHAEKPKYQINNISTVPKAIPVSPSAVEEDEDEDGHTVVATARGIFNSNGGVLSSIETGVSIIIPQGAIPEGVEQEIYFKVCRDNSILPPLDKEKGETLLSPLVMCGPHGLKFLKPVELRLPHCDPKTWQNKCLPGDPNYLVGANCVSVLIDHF

fold enrichment in the surface condensates [1]	fold enrichment in the dense ZO1 phase [2]	Substance
5 fold	–	G-actin-Alexa Fluor 647 (from UniProt P68135 1-377) (natural protein)
–	2 fold	Zonula occludens scaffold protein ZO1 (from UniProt Q07157 1-1748) (natural protein)
